For the test, the target named is fluorescein labelled MPT peptide (UniProt P35579). Nature of the test: fluorescence polarisation; S100A4 variant and fluorescein labelled MPT peptide. (Fluorescence polarisation rises when a labelled molecule tumbles more slowly, as on binding a larger partner.)

In paper PMC4022583 one finds Kd data, which are given here for two substances.

Regarding “S100A4 C-terminal deletion mutant (residues 1-88, Δ13) (from UniProt P26447 1-88) (domain or fragment)”, the Kd (commonly the constant that tells how readily two partners part at equilibrium) came to 0.28 nM.

The substance “wild-type S100A4 (from UniProt P26447 1-101) (natural protein)” returned a Kd of 0.12 nM.
